Experimental data as given in US20250034594A1, “RNA-GUIDED GENOME RECOMBINEERING AT KILOBASE SCALE” (THE BOARD OF TRUSTEES OF THE LELAND STANFORD JUNIOR …, priority 2021, published 2025).

B1: SSAP_304: SEQ ID NO: 473; Desulfobacteraceae bacterium (protein, listed as Desulfobacteraceae bacterium)
chain: ATPNTPTTTDAGDFLKKSEKSLKNYAVRKYDFTSFLKSAMIAINDNTTLSECLRTEAGKKSLFNAMRYAATTGLSLNPQEGKAALIGYKNKAGEMVLNYQIMKNGLIDLALSSGKVEFVTADLVRANDEFSIKKSASGDDYSFSPAIRDRGEVIGFVAALKLKGSATYVKWMSTEEVAEFRDKYSSMYKNRPDASPWTHSFNGMGIKTVMKALLRSVSISPDVDAAVKSDDYIEAEFTVHGTTADDAVTQLQTPSKPVKAEEGQGELL
B2: SSAP_264: SEQ ID NO: 433; Cereibacter johrii (protein, listed as Cereibacter johrii)
chain: TENTAQAPAAARQLTPIQAISQTLESDAFAPKISASLDGTGISPARFKRAALACLSRPEASYLVEKCDRGSIFTAVMNAAAAELELHPALGQAYIVPRGGQAVLQVGYKGFIALASRAGLAVEADVIYAGDRFSIRKGTNPDVSVEPELDPAKRGEWVAVYVITHYASGAKTLTFMTRAEVEAIRNRYSDAYKRGGAGAKTWNESPEEMAKKTCIRRASKLWPISVPGGGDDDGGEVIEADPAPVPAPRMRDVTPGGGLDRLAASL
B3: SSAP_9: SEQ ID NO: 178; Bet Gammaproteobacteria (protein)
chain: EKPKLIQRFAERFSVDPNKLFDTLKATAFKQRDGSAPTNEQMMALLVVADQYGLNPFTKEIFAFPDKQAGIIPVVGVDGWSRIINQHDQFDGMEFKTSENKVSLDGAKECPEWMECIIYRRDRSHPVKITEYLDEVYRPPFEGNGKNGPYRVDGPWQTHTKRMLRHKSMIQCSRIAFGFVGIFDQDEAERIIEGQATHVVEPSVIPPEQVDDRTRGLVYKLIERAEASNAWNSALEYANEHFQGVELTFAKQEIFNAQQQAAKALTQPLAS
modifications: Gammaproteobacteria
notes: Bet Gammaproteobacteria
B4: SSAP_166: SEQ ID NO: 335; Blautia sp. OF03-15BH (protein, listed as Blautia sp.)
chain: NVKEELAQKAEITQKEVKLKKSMSISDMIRALQPEIKKALPSVVTPERFIRMALSALNTTPKLAECSQISVLAALMNAAQLGLEPNTPMGQAYLIPFNNKGKMECQFQIGYKGLLELVYRNPAIQIIQAQTVYENDYFEYELGLNSRLIHRPELEDRGEIRLFYGLFKMVNGGYGFEVMSRQEMDQYAARYSKSFASGFSPWENNYEDMAKKTMIKRVLKYAPVKIETARALINDESIKLHLSEDMSEVENETVVDGQAEEKAA
B5: SSAP_188: SEQ ID NO: 357; Propionibacterium freudenreichii (protein, listed as Propionibacterium freudenreichii)
chain: TQQMPIKAQGEPTKELQQKAAVDRFNATLHQMQNEIARALPKHMTGDRFVRIVLTEVRKNPTLALCDPLTMFGSLLTAAALGLEPGLNGECWLVPRKNHGTLEAQLQVGYRGVVKLFWQNPAATYLDTGYVCERDEFRFAKGLNPILEHTPAEGDRGKVVRYYAVAGLNTGARVFDVFTPAQIKTLRGGKVGSNGDIPDPEHWMERKTALLQVLKLMPKSTQLAAVPAADGRAHTISDAQQIFGGVDPTTGEVLDAEPVEDGAA
B6: SSAP_294: SEQ ID NO: 463; Parageobacillus thermoglucosidasius (protein, listed as Parageobacillus thermoglucosidasius)
chain: AKQADLKNKLANKNSTNPTAYLKNLVYAPTVQQKFKEVLKEKAAHFLTSLISLVDSSPDLQKCNPMTIIASAMKAATLELPIDKNLGYAWIVPYKNVATFQIGYKGYIQLALRTGLYRSINVIEVYEGELRKWNRLTEELDIDEGARKSDHVIGYAGYFELTNGFIKRVYWSKEDIERHRKKFAKSDFGWENNYDAMAKKTVLRNMLSKWGILSIDMQRAYVNDIDDPEQTKEVIDVEWSEIIEEANVANSPEQQEIVFEQ
B7: SSAP_52: SEQ ID NO: 221 (protein)
chain: TIMDLLNDPKMKSQIQRALPNGMSAERIARIALTALRMNPQLQECSPQSFAAALMTSAQLGLEPNTPLGHAWLIPRKNHGKMEVQFELGYKGMLDLVRRSGMITAIFAEEVREKDEFEFEYGTNPYLKHKPYLGGDRGKVLFYYAVATFKDGGYAFKVMSIPEIEEARKLSQSANSPYSPWNRFYDEMAKKTVLKRLCKYLPLSIEVQRNLAQDETIRTQIEADDILDLPNENEFEVVEVEEIPGEEEKEEAKEGPFPNKALRESPTPLT
B8: SSAP_228: SEQ ID NO: 397; Weissella koreensis (protein, listed as Weissella koreensis)
chain: ANELVKQLKSEKVAAQFETTAGKNAAAFASEVAISVMGNKALENASLSSVVVEATKASALGLSLLPTVGEAYLVPYKGQAQFQLGYKGLVQLAMRSGQMKSFGTVKVYEGEHPRWDKYSQELHTDGDETGEVVGYYAQFTLINGFKKADYWTKSAVEEHRSRFSKSKSGPWSTDFDAMAQKTVLKSILQYAPKSSEMTRAMASEDMNGDISEGTAKPIDITPETETPKVEEANQNQQIDTNEMVDEIKEYAKETNEAPKEQTVSAADEFFK
B9: SSAP_243: SEQ ID NO: 412; Nocardia puris (protein, listed as Nocardia puris)
chain: AESISSEVARQASPLAVVARYRSELAGSLPAAVRHDVDRWLMVAEMAVRRSPDLMEIVRRDQGASLMRALIECARLGHEPGSPEFYLIPRGGIVSGEESYRGIIKRILNSGEYQRVVARVVHERDRFSFDPRIDEIPDHRPAEGERGAPARAYAFAVRWDGTPSTVGEATPERIIAAKAKARGVDRKDSPWNSPTGVMYRKTAIRELASYVHTSAEPRPRPAAPTEPPAVDEVSTVYDAEVIDEVDVLDITAEPTA
B10: SSAP_306: SEQ ID NO: 475; Paenibacillus gorillae (protein, listed as Paenibacillus gorillae)
chain: LEAKHDALPSGFNAVRFVQNCKAYLPEVRNFERFNPDEIALQFLKGAILGLDFLAKECHVITEGSAARFQTDYKGEMKLAMKHSVRPLLNIYAKNVREGDVFRESVVEGRPVVSFDPLPFNNSKIIGSFAVAQFNDGGMDYESMSSTEIESIRTHYGKNPGSDTWEKSQGEMYKRTALRRLCKTIEIDFDAEQRLAFDAGSSFEFNREPRPQQQSPLNLESEVLTDEVEQG
B11: SSAP_300: SEQ ID NO: 469; Lactobacillus sp. (protein, listed as Lactobacillus sp.)
chain: NSLSGALNSRNQAGSPTSMIKNLMRSDSIKNRFDEVMGAKAPQFMASITNLVNSNQDLQHVDAMSVVASAMVAATLDLPIDPNLGYMYIVPYRGQAQPQMGYKGYIQLALRTGQYKHINALPVYDDEVKSWNPLTEELEYESSGTSHDNQTPAGYVGYFQLINGFEKTTYWTYDQINSHRQKFSKMSSKTDPTGVWKSNFDAMALKTVLRNLISKWGIMSIEMQQAFVKDERPQEFDHETGEIQDVQEVEAEEENVAPETQGSTDKKEE
B12: SSAP_157: SEQ ID NO: 326; Pseudoflavonifractor sp. An184 (protein, listed as Pseudoflavonifractor sp.)
chain: ATEKAIQRATGRAPALENRPALQQYIKQMSGEIKKALPSVMTPERFTRIVLSALSTNPKLAETTPQSFLGAMMTAAQLGLEPNTPLGQAYLLPYWNSKANAYECQFQLGYKGLLDLAYRSGEISVIQAHVVYSEDQFSYSFGLKPELKHIPAGEERGEPVYVYAIFHTKDGGYGFEVCSIDDIRAHAQRYSKSFQNGPWQTNFEEMAKKTVLKRVLKYAPLKSEFLRGLAQDETIKQEISEDMYMVEAAYAEPDVSSAEND

What was measured:
Format in all cases: cell-based
gene editing with Cas9 = assay: Screen of 322 new SSAP proteins, gene editing activity with Cas9 (Table 5); set-up: Cas9 with SSAP activity: scale not given here
In short: (§1)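 Synthetic SSAP candidates, identified computationally, were tested in editing screens using both Cas9 and dCas9.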

gene editing with dCas9 = assay: Screen of 322 new SSAP proteins, gene editing activity with dCas9 (Table 5); set-up: dCas9 with SSAP activity: scale not given here
In short: as §1

[1] = test system: gene editing with Cas9 and dCas9; assay: Screen of 322 new SSAP proteins, activity across all experiments (Cas9 and dCas9, Table 5); set-up: scale not given here
In short: as §1

Molecule | Cas9 with SSAP activity (gene editing with Cas9) | Cas9 with SSAP activity (normalized) (gene editing with Cas9) | dCas9 with SSAP activity (gene editing with dCas9) | dCas9 with SSAP activity (normalized) (gene editing with dCas9) | Activity across all experiments [1]
B1 | −2.690 | −0.447 | −5.835 | −0.886 | −4.262
B2 | 0.565 | 0.375 | −5.815 | −0.919 | −2.625
B3 | −0.503 | −1.380 | −5.773 | −1.126 | −3.138
B4 | −1.338 | −0.432 | −5.849 | −0.934 | −3.593
B5 | −6.279 | −0.994 | −5.957 | −0.867 | −6.118
B6 | −7.102 | −2.102 | −5.929 | −1.096 | −6.515
B7 | −0.544 | −0.573 | 0.163 | 0.148 | −0.190
B8 | −4.425 | −0.688 | −5.964 | −1.008 | −5.195
B9 | −1.310 | −0.511 | −5.989 | −1.036 | −3.650
B10 | −2.932 | −2.350 | −5.884 | −0.905 | −4.408
B11 | −4.466 | −0.701 | −5.916 | −1.175 | −5.191
B12 | −3.533 | −1.181 | −5.734 | −0.898 | −4.633
